B1: F1*; the commonest letter at each place (parent)
chain: GAGACCGCAACTGAAAAGTTGTTATCACTTGTCGTAAGACACTTTGGATGGGTTGAAGTTCTGCACGTAGAAGCAAAAGGC

Variants of: B1
Test: fraction ligated after 30 min (ligated reads / total reads); higher = more ligase activity
Settings: with F1*sub RNA substrate (template-directed ligation), 42 °C
Experimental: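 Chip-synthesised pool of F1* ligase ribozyme variants (all single and double substitutions, single, double and triple deletions in the catalytic core and GAA bulge, plus designed variants) was transcribed with T7 and reacted as a pool with excess substrate F1*sub for 30 min at 42 C in 50 mM EPPS pH 8.5, 25 mM MgCl2. Ligated and unligated bands were separated by PAGE, barcoded by RT and deep sequenced; fraction ligated = ligated reads / total reads per variant, relative activity = FL / FL of wild type (0.826). Sequences are the DNA template of the ribozyme.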
Work on A24T T44A yielded a fraction ligated of 0.772. A24T T44C showed a fraction ligated of 0.778. Work on A24T T44G yielded a fraction ligated of 0.196. T25C T43G showed a fraction ligated of 0.8. T25C T43A gave a fraction ligated of 0.655. Variant T25C T43C has a fraction ligated of 0.731. With T25G T29A the fraction ligated was 0.773. In the case of T25G T29G, the fraction ligated is reported as 0.714. For T25G T29C, the fraction ligated was 0.385. A24T T32G was tested, and the fraction ligated was 0.372. For A24T T32C, the fraction ligated was 0.243. Work on A24T T32A yielded a fraction ligated of 0.153. With T25C G31T the fraction ligated was 0.546. T25C G31A gave a fraction ligated of 0.742. For T25C G31C, the fraction ligated was 0.53. In the case of T25A C33T, the fraction ligated is reported as 0.472. T25A C33G gave a fraction ligated of 0.229. Work on T25A C33A yielded a fraction ligated of 0.189. In the case of T25G A36T, the fraction ligated is reported as 0.795. With T25G A36C the fraction ligated was 0.77. Variant T25G A36G has a fraction ligated of 0.795. For T25G T32C, the fraction ligated was 0.364. T25G T32A gave a fraction ligated of 0.324. T25G T32G gave a fraction ligated of 0.293. Variant T25A C40G has a fraction ligated of 0.256. T25A C40T showed a fraction ligated of 0.647. Work on T25A C40A yielded a fraction ligated of 0.134. T25G G46C was tested, and the fraction ligated was 0.135. Variant T25G G46A has a fraction ligated of 0.266. Work on T25G G46T yielded a fraction ligated of 0.134. Work on T25G C28T yielded a fraction ligated of 0.675. Work on T25G C28A yielded a fraction ligated of 0.348. In the case of T25G C28G, the fraction ligated is reported as 0.541. Work on A24T T45A yielded a fraction ligated of 0.0698. A24T T45C was tested, and the fraction ligated was 0.0212. In the case of A24T T45G, the fraction ligated is reported as 0.0472. T25A A36G was tested, and the fraction ligated was 0.766. Variant T25A A36C has a fraction ligated of 0.684. T25A A36T was tested, and the fraction ligated was 0.752. For T25C G50T, the fraction ligated was 0.639. T25C G50A gave a fraction ligated of 0.326. In the case of T25C G50C, the fraction ligated is reported as 0.379. For T25C A27C, the fraction ligated was 0.744. In the case of T25C A27T, the fraction ligated is reported as 0.774. T25C A27G gave a fraction ligated of 0.796. In the case of T25A T30A, the fraction ligated is reported as 0.32. T25A T30C gave a fraction ligated of 0.218. For T25A T30G, the fraction ligated was 0.461. In the case of T25C C40A, the fraction ligated is reported as 0.524. For T25C C40T, the fraction ligated was 0.819. With T25C C40G the fraction ligated was 0.378. Variant T25G A39G has a fraction ligated of 0.759. Work on T25G A39C yielded a fraction ligated of 0.373. With T25G A39T the fraction ligated was 0.393. In the case of T25C A36C, the fraction ligated is reported as 0.771. Work on T25C A36G yielded a fraction ligated of 0.816. In the case of T25C A36T, the fraction ligated is reported as 0.793. Variant T25G C40G has a fraction ligated of 0.58. T25G C40A was tested, and the fraction ligated was 0.229. In the case of T25G C40T, the fraction ligated is reported as 0.732. For T25C T45A, the fraction ligated was 0.295. T25C T45C showed a fraction ligated of 0.0655. T25C T45G was tested, and the fraction ligated was 0.0359. With A24T T30C the fraction ligated was 0.297. A24T T30G showed a fraction ligated of 0.768. In the case of A24T T30A, the fraction ligated is reported as 0.67. In the case of T25A G34C, the fraction ligated is reported as 0.521. Work on T25A G34T yielded a fraction ligated of 0.718. For T25A G34A, the fraction ligated was 0.724. T25G G55T was tested, and the fraction ligated was 0.132. Variant T25G G55C has a fraction ligated of 0.0471. In the case of T25G G55A, the fraction ligated is reported as 0.442. With T25A G47T the fraction ligated was 0.253. With T25A G47C the fraction ligated was 0.0196. Work on T25A G47A yielded a fraction ligated of 0.462. Variant A24T T29C has a fraction ligated of 0.6. Variant A24T T29G has a fraction ligated of 0.716. In the case of A24T T29A, the fraction ligated is reported as 0.789. Work on C26A A39C yielded a fraction ligated of 0.627. C26A A39T gave a fraction ligated of 0.721. C26A A39G gave a fraction ligated of 0.75. Variant A24T T35A has a fraction ligated of 0.808. A24T T35C was tested, and the fraction ligated was 0.788. In the case of A24T T35G, the fraction ligated is reported as 0.772. A24T C42A showed a fraction ligated of 0.743. With A24T C42G the fraction ligated was 0.769. A24T C42T was tested, and the fraction ligated was 0.792. Work on T25A C26A yielded a fraction ligated of 0.0968. In the case of T25A C26T, the fraction ligated is reported as 0.129. For T25A C26G, the fraction ligated was 0.0644. Variant T25G G31T has a fraction ligated of 0.0799. T25G G31A was tested, and the fraction ligated was 0.0861. Variant T25G G31C has a fraction ligated of 0.0618. Variant T25A T45C has a fraction ligated of 0.0183. For T25A T45G, the fraction ligated was 0.029. T25A T45A gave a fraction ligated of 0.0271. Work on T25C A37C yielded a fraction ligated of 0.766. Work on T25C A37T yielded a fraction ligated of 0.784. Variant T25C A37G has a fraction ligated of 0.812. With C26A the fraction ligated was 0.788. In the case of C26A A48C, the fraction ligated is reported as 0.366. Variant C26A A37C has a fraction ligated of 0.781. For C26A A37T, the fraction ligated was 0.797. C26A A37G gave a fraction ligated of 0.785. For T25A T35G, the fraction ligated was 0.764. Work on T25A T35A yielded a fraction ligated of 0.751. With T25A T35C the fraction ligated was 0.761. A24T C40T was tested, and the fraction ligated was 0.769. With A24T C40G the fraction ligated was 0.582. A24T C40A gave a fraction ligated of 0.34. In the case of A24T G47A, the fraction ligated is reported as 0.797. For A24T G47C, the fraction ligated was 0.0331. A24T G47T showed a fraction ligated of 0.108. Work on T25A A57G yielded a fraction ligated of 0.345. Work on T25A A57C yielded a fraction ligated of 0.199. Work on T25A A57T yielded a fraction ligated of 0.252. T25G G34C was tested, and the fraction ligated was 0.737. T25G G34A gave a fraction ligated of 0.77. T25G G34T was tested, and the fraction ligated was 0.735. A24T C26G was tested, and the fraction ligated was 0.201. With A24T C26T the fraction ligated was 0.124. Work on C26A A27C yielded a fraction ligated of 0.842. Work on C26A A27G yielded a fraction ligated of 0.747. C26A A27T showed a fraction ligated of 0.747. T25A A27G showed a fraction ligated of 0.372. Variant T25A A27C has a fraction ligated of 0.266. With T25A A27T the fraction ligated was 0.371. T25G C42A showed a fraction ligated of 0.737. T25G C42G gave a fraction ligated of 0.737. T25G C42T was tested, and the fraction ligated was 0.797. Work on T25A T49G yielded a fraction ligated of 0.772. Variant T25A T49A has a fraction ligated of 0.721. T25A T49C gave a fraction ligated of 0.612. T25C C28A was tested, and the fraction ligated was 0.684. T25C C28G gave a fraction ligated of 0.78. T25C C28T showed a fraction ligated of 0.803. Work on A24T T25G yielded a fraction ligated of 0.722. For A24T T25A, the fraction ligated was 0.735. With A24T T25C the fraction ligated was 0.779. Work on T25A G55T yielded a fraction ligated of 0.0485. T25A G55A showed a fraction ligated of 0.263. T25A G55C was tested, and the fraction ligated was 0.0483. Work on T25G C33A yielded a fraction ligated of 0.526. T25G C33T showed a fraction ligated of 0.704. In the case of T25G C33G, the fraction ligated is reported as 0.535. With T25C C26G the fraction ligated was 0.0807. With T25C C26T the fraction ligated was 0.813. Variant T25C C26A has a fraction ligated of 0.0548. Variant T25C T35A has a fraction ligated of 0.781. In the case of T25C T35G, the fraction ligated is reported as 0.801. Work on T25C T35C yielded a fraction ligated of 0.771. In the case of T25G A48G, the fraction ligated is reported as 0.291. In the case of T25G A48C, the fraction ligated is reported as 0.819. T25G A48T showed a fraction ligated of 0.818. With T25A A39T the fraction ligated was 0.255. Variant T25A A39G has a fraction ligated of 0.751. Variant T25A A39C has a fraction ligated of 0.223. A24T G38T showed a fraction ligated of 0.745. A24T G38C gave a fraction ligated of 0.685. Variant A24T G38A has a fraction ligated of 0.205. In the case of T25A A41C, the fraction ligated is reported as 0.0344. For T25A A41T, the fraction ligated was 0.587. T25A A41G gave a fraction ligated of 0.419. T25C C33A was tested, and the fraction ligated was 0.77. With T25C C33T the fraction ligated was 0.786. In the case of T25C C33G, the fraction ligated is reported as 0.144. In the case of A24T T43C, the fraction ligated is reported as 0.621.

— the supplement of paper PMC6755084
